The target of assay [1] is native integrin αIIbβ3 expressed on the surface of human platelets (human) (UniProt P08514). The experiment in a line: cell-based or functional assay.
Assay [2] has as its target human integrin αIIbβ3 (purified, Enzyme Research Laboratories) (human) (UniProt P08514). Put plainly: competitive ELISA: inhibition of biotinylated human fibrinogen binding to immobilised human integrin αIIbβ3. (ELISA stands for enzyme-linked immunosorbent assay.)
The target of assay [3] is T1, human integrin αIIbβ3 (purified, Enzyme Research Laboratories) (human, UniProt P08514 32-1039; P05106 27-788).
T1 construct: Bought protein, coated on ELISA plates or used in solution; also called integrin αIIββ3; GPIIb/IIIa
The experiment in a line: competitive ELISA: inhibition of biotinylated fibrinogen binding to immobilised integrin αIIbβ3.

Bridges are numbered along the chain shown (N, C = ends). Where no end group is shown, it is not given here.

A word on the IC50: it is the concentration that gives 50% inhibition. Low values mean greater potency, high ones weaker potency.

Sequence of Fab abciximab (ReoPro) (VH): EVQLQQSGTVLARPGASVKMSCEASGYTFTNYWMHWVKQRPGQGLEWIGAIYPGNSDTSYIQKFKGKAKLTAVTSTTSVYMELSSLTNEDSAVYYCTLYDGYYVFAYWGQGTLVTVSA
Sequence of Fab abciximab (ReoPro) (VL): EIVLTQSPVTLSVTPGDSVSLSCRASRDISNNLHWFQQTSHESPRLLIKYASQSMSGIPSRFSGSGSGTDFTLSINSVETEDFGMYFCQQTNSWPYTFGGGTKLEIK

Take Fab abciximab (ReoPro): the EC50, required concentration for 50% inhibition in a human platelet aggregation assay in assay [1] stood at 45 nM. For the same molecule, the IC50 in assay [2] is 90 nM. In the case of VWCRADRRC (disulfide 3-9 (inferred); not fully specified) [cyclic peptide VWCRADRRC], the IC50 in assay [3] came to 1200 nM.

In turn, VVCRADRRC (disulfide 3-9 (inferred), Synthetic nonapeptide (Peptron)) [cyclic peptide VVCRADRRC] gave an IC50 in assay [3] of 11000 nM.

The molecule VWCRADKRC (disulfide 3-9 (inferred)) [cyclic peptide VWCRADKRC] returned an IC50 in assay [3] of 4200 nM.

The record behind these values is US20100297101A1 (Scripps Research, published 2010).
